Seven molecules from publication PMC9929924, “Phosphorylation of the receptor protein Pex5p modulates import of proteins into peroxisomes” (Biological Chemistry, 2022) can be followed below.

One experiment deals with Pex5p^2D cells. Kind of experiment: Fluorescence microscopy, peroxisomal import of GFP-tagged proteins in Pex5p^2D-expressing cells. Format: cell-based, S. cerevisiae. Also noted: key to import phenotype category: showed a reduced peroxisomal import and constitute category 1; category 2 characterized by no peroxisomal import; without a noticeable effect on import in Pex5p^2D cells (category 3). To be noted: GFP-tagged protein, Pex3p-mCherry marker, SD medium, 2% glucose; for import phenotype category: Pex5p^2D-expressing cells, assessed manually. The text has this:
Query strains were constructed on the basis of an automated mating compatible strain. The query strains contained a peroxisomal marker (Pex3p-mCherry::HIS), a deletion of PEX5 (pex5Δ::NAT) and a plasmid expressing WT or mutant PEX5 (PEX5^WT, PEX5^2D or PEX5^2A). Using an automated mating method ([Cohen and Schuldiner 2011]; [Tong and Boone 2006]), the query strains were crossed with a NOP1pr-N′-GFP-peroxi library ([Dahan et al. 2017]). The NOP1pr-N′-GFP-peroxisomal library is a collection of ∼90 strains containing all the known peroxisomal proteins together with potential peroxisomal proteins and controls, genomically tagged with GFP at their N-terminus and expressed under the generic constitutive SpNOP1 promoter. To perform the manipulations in high-density format we used a RoToR bench top colony arrayer (Singer Instruments). In short: mating was performed on rich medium plates, and selection for diploid cells was performed on SD(MSG)-HIS-URA plates containing Geneticin (200 μg ml^−1) and Nourseothricin (200 μg ml^−1). Sporulation was induced by transferring cells to nitrogen starvation media plates for 7 days. Haploid cells containing the desired mutations were selected by transferring cells to SD-URA-HIS-LYS-ARG-LEU plates containing Geneticin and Nourseothricin (same concentrations as above), alongside the toxic amino acid derivatives Canavanine and Thialysine (Sigma-Aldrich) to select against remaining diploids and select for spores with an α mating type. A similar method was used to generate control, pex5Δ, and pex8Δ strains expressing GFP-Mdh3p (Supplementary Figure 4D), in which the query strain contained a peroxisomal marker (Pex3p-mCherry::NAT) and URA3::GFP-Mdh3p. This query strain was crossed with three strains from the mini peroxisomal deletion library ([Gabay-Maskit et al. 2020]): a control (no deletion), pex5Δ, and pex8Δ strain, all of which contain KAN (Geneticin) resistance.
The yeast collections were visualized using an automated microscopy setup as described previously ([Breker et al. 2013]). In short: cells were transferred from agar plates into 384-well polystyrene plates (Greiner) for growth in liquid media using the RoToR arrayer robot. Liquid cultures were grown in a LiCONiC incubator, overnight at 30 °C in SD-URA-HIS medium. A JANUS liquid handler (PerkinElmer) connected to the incubator was used to dilute the strains to an OD600 of ∼0.2 into plates containing SD medium (6.7 g l^−1 yeast nitrogen base and 2% glucose) supplemented with complete amino acids. Plates were incubated at 30 °C for 4 h. The cultures in the plates were then transferred by the liquid handler into glass-bottom 384-well microscope plates (Matrical Bioscience) coated with Concanavalin A (Sigma-Aldrich). After 20 min, cells were washed three times with SD-Riboflavin complete medium to remove non-adherent cells and to obtain a cell monolayer. The plates were then transferred to the ScanR automated inverted fluorescent microscope system (Olympus) using a robotic swap arm (Hamilton). Images of cells in the 384-well plates were recorded in the same liquid as the washing step at 24 °C using a 60× air lens (NA 0.9) and with an ORCA-ER charge-coupled device camera (Hamamatsu). Images were acquired in two channels: GFP (excitation filter 490/20 nm, emission filter 535/50 nm) and mCherry (excitation filter 572/35 nm, emission filter 632/60 nm). All images were taken at a single focal plane. The same protocol was used to visualize fluorescence signals in GFP-Mdh3p-expressing control, pex5Δ, and pex8Δ strains (Supplementary Figure 4D).

In experiment [1] the test system is GFP-SKL import in pex5Δ yeast cells. Kind of experiment: Fluorescence microscopy, import of GFP-SKL in cells expressing Pex5p variants. The experiment is classed as cell-based, S. cerevisiae. To be noted: pex5Δ cells expressing plasmid-encoded Pex5p variant and GFP-SKL; grown in oleate. As to the method: Cells expressing distinct Pex5p variants (wildtype, Pex5p^2A or Pex5p^2D) and GFP-SKL were grown overnight in 50 ml YNO medium supplemented with 0.1% (w/v) glucose to an OD600 of 1–1.5. Aliquots of 5.4 ml were taken and formaldehyde was added to a final concentration of 3.7% (v/v). Samples were incubated for 10 min at RT with slight agitation. Cells were collected by centrifugation (5 min at 2000 g), resuspended in 1 ml of 0.1 M potassium phosphate buffer (pH 6.8) containing 3.7% (v/v) formaldehyde and incubated for 1 h at RT with slight agitation. Following centrifugation (30 s at 16,000 g), cells were resuspended in 1 ml of 0.1 M potassium phosphate buffer (pH 6.8) containing 10 mM ethanolamine and incubated for further 10 min at RT. Subsequently, cells were washed twice with phosphate-buffered saline (PBS) and resuspended in 10–20 µl of PBS containing 0.1% (v/v) Triton X-100. Fixed cells were analyzed within 48 h after preparation.
Fluorescence microscopy was performed using a Zeiss Axio Observer.Z1 microscope equipped with an alpha Plan-Aprochromat 100× objective and an AxioCam MR R3. GFP signal was visualized with a 38 HE filterset from Zeiss. Images were processed using Adobe Photoshop CS5 (version 12.0.4 ×64; Adobe Systems Incorporated). To document the structural integrity of cells, bright field images were acquired, adjusted in a way that only the cell boundaries were visible and subsequently added into the blue channel in Photoshop as reported before ([Motley and Hettema 2007]).

With “Pex8p: essential component of the import machinery for peroxisomal matrix proteins”, the import phenotype category result with Pex5p^2D cells is given as “category 1”.

B1: Pnc1p: nicotinamidase, imported by piggy-backing on Gpd1p (protein, UniProt P53184 1-216, looked up)
Nicotinamidase: MKTLIVVDMQNDFISPLGSLTVPKGEELINPISDLMQDADRDWHRIVVTRDWHPSRHISFAKNHKDKEPYSTYTYHSPRPGDDSTQEGILWPVHCVKNTWGSQLVDQIMDQVVTKHIKIVDKGFLTDREYYSAFHDIWNFHKTDMNKYLEKHHTDEVYIVGVALEYCVKATAISAAELGYKTTVLLDYTRPISDDPEVINKVKEELKAHNINVVDK
Consider B1, for which the “subcellular distribution / peroxisomal import” value in the experiment on Pex5p^2D cells (Pex5p^2D cells) is given as “no differences in localization”.

B2: Str3p: peroxisomal cystathionine beta-lyase (protein, UniProt P53101 1-465, looked up)
Cystathionine beta-lyase: MPIKRLDTVVVNTGSQNDQHSASVPPVYLSTTFKVDLNNEDAQNYDYSRSGNPTRSVLQHQIGKLYRVPQENVLAVSSGMTALDVILRGLVLLNGTDNHTPTIIAGDDLYGGTQRLLNFFKQQSHAVSVHVDTSDFEKFKTVFQSLDKVDCVLLESPTNPLCKVVDIPRILRFVKCISPDTTVVVDNTMMSGLNCNPLQLNPGCDVVYESATKYLNGHHDLMGGVIISKTPEIASKLYFVINSTGAGLSPMDSWLLVRGLKTLGVRLYQQQRNAMILAHWLENSCGFKPTRTNKATKTRFVGLRSNPDFKLHKSFNNGPGAVLSFETGSFEHSKRLVSSKKLSIWAVTVSFGCVNSLLSMPCKMSHASIDPELRKERDFPEDLVRLCCGIENIVDLKKDLLAAMVDADIIEVRENGKYLFNKLNKNLAVNTTIDDLHKPLSIYEEFYNQDLIRKDSELNIKSSKL
On to B2, for which the import phenotype category entry in the experiment on Pex5p^2D cells is listed as “category 3”.

B3: Pex5p^S507D (protein, UniProt P35056 1-612, looked up, variant S507D)
Peroxisomal targeting signal …: MDVGSCSVGNNPLAQLHKHTQQNKSLQFNQKNNGRLNESPLQGTNKPGISEAFISNVNAISQENMANMQRFINGEPLIDDKRRMEIGPSSGRLPPFSNVHSLQTSANPTQIKGVNDISHWSQEFQGSNSIQNRNADTGNSEKAWQRGSTTASSRFQYPNTMMNNYAYASMNSLSGSRLQSPAFMNQQQSGRSKEGVNEQEQQPWTDQFEKLEKEVSENLDINDEIEKEENVSEVEQNKPETVEKEEGVYGDQYQSDFQEVWDSIHKDAEEVLPSELVNDDLNLGEDYLKYLGGRVNGNIEYAFQSNNEYFNNPNAYKIGCLLMENGAKLSEAALAFEAAVKEKPDHVDAWLRLGLVQTQNEKELNGISALEECLKLDPKNLEAMKTLAISYINEGYDMSAFTMLDKWAETKYPEIWSRIKQQDDKFQKEKGFTHIDMNAHITKQFLQLANNLSTIDPEIQLCLGLLFYTKDDFDKTIDCFESALRVNPNDELMWNRLGASLANSNRDEEAIQAYHRALQLKPSFVRARYNLAVSSMNIGCFKEAAGYLLSVLSMHEVNTNNKKGDVGSLLNTYNDTVIETLKRVFIAMNRDDLLQEVKPGMDLKRFKGEFSF
Regarding B3, in experiment [1], the “subcellular distribution of GFP-SKL” value is on record as “wildtype-like distribution of GFP-SKL”.

B4: Pex5p^S523D (protein, UniProt P35056 1-612, looked up, variant S523D)
Peroxisomal targeting signal …: MDVGSCSVGNNPLAQLHKHTQQNKSLQFNQKNNGRLNESPLQGTNKPGISEAFISNVNAISQENMANMQRFINGEPLIDDKRRMEIGPSSGRLPPFSNVHSLQTSANPTQIKGVNDISHWSQEFQGSNSIQNRNADTGNSEKAWQRGSTTASSRFQYPNTMMNNYAYASMNSLSGSRLQSPAFMNQQQSGRSKEGVNEQEQQPWTDQFEKLEKEVSENLDINDEIEKEENVSEVEQNKPETVEKEEGVYGDQYQSDFQEVWDSIHKDAEEVLPSELVNDDLNLGEDYLKYLGGRVNGNIEYAFQSNNEYFNNPNAYKIGCLLMENGAKLSEAALAFEAAVKEKPDHVDAWLRLGLVQTQNEKELNGISALEECLKLDPKNLEAMKTLAISYINEGYDMSAFTMLDKWAETKYPEIWSRIKQQDDKFQKEKGFTHIDMNAHITKQFLQLANNLSTIDPEIQLCLGLLFYTKDDFDKTIDCFESALRVNPNDELMWNRLGASLANSNRSEEAIQAYHRALQLKPDFVRARYNLAVSSMNIGCFKEAAGYLLSVLSMHEVNTNNKKGDVGSLLNTYNDTVIETLKRVFIAMNRDDLLQEVKPGMDLKRFKGEFSF
Consider B4, for which, in experiment [1], the “subcellular distribution of GFP-SKL” value is given as “wildtype-like distribution of GFP-SKL”.

B5: Mls1p (protein, UniProt P30952 1-554, looked up)
Malate synthase 1: MVKVSLDNVKLLVDVDKEPFFKPSSTTVGDILTKDALEFIVLLHRTFNNKRKQLLENRQVVQKKLDSGSYHLDFLPETANIRNDPTWQGPILAPGLINRSTEITGPPLRNMLINALNAPVNTYMTDFEDSASPTWNNMVYGQVNLYDAIRNQIDFDTPRKSYKLNGNVANLPTIIVRPRGWHMVEKHLYVDDEPISASIFDFGLYFYHNAKELIKLGKGPYFYLPKMEHHLEAKLWNDVFCVAQDYIGIPRGTIRATVLIETLPAAFQMEEIIYQLRQHSSGLNCGRWDYIFSTIKRLRNDPNHILPNRNQVTMTSPFMDAYVKRLINTCHRRGVHAMGGMAAQIPIKDDPAANEKAMTKVRNDKIRELTNGHDGSWVAHPALAPICNEVFINMGTPNQIYFIPENVVTAANLLETKIPNGEITTEGIVQNLDIGLQYMEAWLRGSGCVPINNLMEDAATAEVSRCQLYQWVKHGVTLKDTGEKVTPELTEKILKEQVERLSKASPLGDKNKFALAAKYFLPEIRGEKFSEFLTTLLYDEIVSTKATPTDLSKL
In the case of B5, the import phenotype category entry in the experiment with Pex5p^2D cells is “category 2”.

B6: Idp3p (protein, UniProt P53982 1-420, looked up)
Isocitrate dehydrogenase …: MSKIKVVHPIVEMDGDEQTRVIWKLIKEKLILPYLDVDLKYYDLSIQERDRTNDQVTKDSSYATLKYGVAVKCATITPDEARMKEFNLKEMWKSPNGTIRNILGGTVFREPIIIPKIPRLVPHWEKPIIIGRHAFGDQYRATDIKIKKAGKLRLQFSSDDGKENIDLKVYEFPKSGGIAMAMFNTNDSIKGFAKASFELALKRKLPLFFTTKNTILKNYDNQFKQIFDNLFDKEYKEKFQALKITYEHRLIDDMVAQMLKSKGGFIIAMKNYDGDVQSDIVAQGFGSLGLMTSILITPDGKTFESEAAHGTVTRHFRKHQRGEETSTNSIASIFAWTRAIIQRGKLDNTDDVIKFGNLLEKATLDTVQVGGKMTKDLALMLGKTNRSSYVTTEEFIDEVAKRLQNMMLSSNEDKKGMCKL
Regarding B6, the import phenotype category entry in the experiment with Pex5p^2D cells is “category 2”.
